Assay results as given in article PMC3077550 (Nature cell biology, 2011).

T1: GST-BIN2 (Arabidopsis thaliana, UniProt Q39011 1-380)
T1 sequence (looked up): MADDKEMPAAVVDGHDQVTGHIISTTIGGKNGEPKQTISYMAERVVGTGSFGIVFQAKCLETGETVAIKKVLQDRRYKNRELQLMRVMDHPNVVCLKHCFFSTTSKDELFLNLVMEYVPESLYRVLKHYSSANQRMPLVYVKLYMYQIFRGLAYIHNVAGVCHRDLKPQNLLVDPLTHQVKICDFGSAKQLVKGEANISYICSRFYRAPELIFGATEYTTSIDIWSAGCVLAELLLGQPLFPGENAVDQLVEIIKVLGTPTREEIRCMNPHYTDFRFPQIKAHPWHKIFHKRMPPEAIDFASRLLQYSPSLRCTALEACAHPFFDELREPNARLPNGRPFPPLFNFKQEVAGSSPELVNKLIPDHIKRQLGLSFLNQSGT

T2: GST-PP2AB’α (Arabidopsis thaliana, UniProt O04375 1-495)
T2 sequence (looked up): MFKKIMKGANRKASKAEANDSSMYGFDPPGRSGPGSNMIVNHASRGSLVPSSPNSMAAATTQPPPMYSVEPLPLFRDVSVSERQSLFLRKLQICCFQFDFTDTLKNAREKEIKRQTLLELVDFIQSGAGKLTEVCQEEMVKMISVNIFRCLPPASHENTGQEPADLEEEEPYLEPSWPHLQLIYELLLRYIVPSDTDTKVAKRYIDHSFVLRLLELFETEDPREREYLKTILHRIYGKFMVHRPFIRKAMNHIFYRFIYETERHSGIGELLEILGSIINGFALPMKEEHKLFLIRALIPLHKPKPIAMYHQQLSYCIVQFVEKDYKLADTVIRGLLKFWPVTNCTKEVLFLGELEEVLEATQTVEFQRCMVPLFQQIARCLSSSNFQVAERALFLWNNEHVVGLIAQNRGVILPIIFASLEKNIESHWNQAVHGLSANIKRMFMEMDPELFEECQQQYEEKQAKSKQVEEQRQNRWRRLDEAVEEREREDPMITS


What was measured:
[1] = molecular target: T1, GST-BIN2; assay: far-Western, overlay or dot blot
[2] = molecular target: T2, GST-PP2AB’α; assay: far-Western, overlay or dot blot

binding result [1] | binding result [2] | Binder
binds | binds | MBP-BZR1 (unphosphorylated) (natural protein, Arabidopsis thaliana, UniProt Q8S307 1-336, looked up) MTSDGATSTSAAAAAAAAAAARRKPSWRERENNRRRERRRRAVAAKIYTGLRAQGDYNLPKHCDNNEVLKALCVEAGWVVEEDGTTYRKGCKPLPGEIAGTSSRVTPYSSQNQSPLSSAFQSPIPSYQVSPSSSSFPSPSRGEPNNNMSSTFFPFLRNGGIPSSLPSLRISNSCPVTPPVSSPTSKNPKPLPNWESIAKQSMAIAKQSMASFNYPFYAVSAPASPTHRHQFHTPATIPECDESDSSTVDSGHWISFQKFAQQQPFSASMVPTSPTFNLVKPAPQQMSPNTAAFQEIGQSSEFKFENSQVKPWEGERIHDVGMEDLELTLGNGKARG
binds | binds | MBP-bzr1-1D (natural protein, Arabidopsis thaliana, UniProt Q8S307 1-336, looked up) MTSDGATSTSAAAAAAAAAAARRKPSWRERENNRRRERRRRAVAAKIYTGLRAQGDYNLPKHCDNNEVLKALCVEAGWVVEEDGTTYRKGCKPLPGEIAGTSSRVTPYSSQNQSPLSSAFQSPIPSYQVSPSSSSFPSPSRGEPNNNMSSTFFPFLRNGGIPSSLPSLRISNSCPVTPPVSSPTSKNPKPLPNWESIAKQSMAIAKQSMASFNYPFYAVSAPASPTHRHQFHTLATIPECDESDSSTVDSGHWISFQKFAQQQPFSASMVPTSPTFNLVKPAPQQMSPNTAAFQEIGQSSEFKFENSQVKPWEGERIHDVGMEDLELTLGNGKARG
